Experimental findings from patent publication US8871909B2, “Antibodies inhibiting c-Met dimerization and uses thereof” (Pierre Fabre Medicament, priority 2007, dated 2014) are described below.

This assay concerns the target T1, recombinant c-Met-Extra-Cellular Domain (ECD) fused to an human IgG Fc domain (Homo sapiens, UniProt P08581).
T1 construct: recombinant c-Met-Extra-Cellular Domain (ECD) fused to an human IgG Fc domain (R&D Systems) as antigen; purchased R&D Systems
The experiment in a line: Determination of affinity constants (KD) by Biacore analysis. Type of assay: binding. The conditions noted are these: first column; Fab fragments, 25° C. From the text: The binding affinity of purified 11E1 and 224G11 antibodies was investigated by BIAcore X using recombinant c-Met-Extra-Cellular Domain (ECD) fused to an human IgG Fc domain (R&D Systems) as antigen (MW=129 kDa). As both c-Met-Fc fusion proteins and antibodies are bivalent compounds, Fab fragments of mAbs 11E1 and 224G11 (MW=50 kDa) were generated by papain cleavage, purified and used in this assay to avoid interference with avidity parameter. For the assay, an anti-Tag histidine capture antibody was coated on CM5 sensorchips. The running buffer was HBS-EP, the flow rate was 30 μl/min and the test was performed at 25° C. Soluble c-Met (ECD_M1)2-Fc-(HHHHHH)2 antigen was captured on the sensorchip (around 270 RU), and the antibodies to be tested were used in solution as analytes. The sensorship was regenerated using Glycine, HCl pH 1.5 buffer on both flowcells for half a minute.
For orientation: Surface plasmon resonance follows binding to a sensor surface in real time, without labels.

T1 sequence (P08581 25-932 limits assumed): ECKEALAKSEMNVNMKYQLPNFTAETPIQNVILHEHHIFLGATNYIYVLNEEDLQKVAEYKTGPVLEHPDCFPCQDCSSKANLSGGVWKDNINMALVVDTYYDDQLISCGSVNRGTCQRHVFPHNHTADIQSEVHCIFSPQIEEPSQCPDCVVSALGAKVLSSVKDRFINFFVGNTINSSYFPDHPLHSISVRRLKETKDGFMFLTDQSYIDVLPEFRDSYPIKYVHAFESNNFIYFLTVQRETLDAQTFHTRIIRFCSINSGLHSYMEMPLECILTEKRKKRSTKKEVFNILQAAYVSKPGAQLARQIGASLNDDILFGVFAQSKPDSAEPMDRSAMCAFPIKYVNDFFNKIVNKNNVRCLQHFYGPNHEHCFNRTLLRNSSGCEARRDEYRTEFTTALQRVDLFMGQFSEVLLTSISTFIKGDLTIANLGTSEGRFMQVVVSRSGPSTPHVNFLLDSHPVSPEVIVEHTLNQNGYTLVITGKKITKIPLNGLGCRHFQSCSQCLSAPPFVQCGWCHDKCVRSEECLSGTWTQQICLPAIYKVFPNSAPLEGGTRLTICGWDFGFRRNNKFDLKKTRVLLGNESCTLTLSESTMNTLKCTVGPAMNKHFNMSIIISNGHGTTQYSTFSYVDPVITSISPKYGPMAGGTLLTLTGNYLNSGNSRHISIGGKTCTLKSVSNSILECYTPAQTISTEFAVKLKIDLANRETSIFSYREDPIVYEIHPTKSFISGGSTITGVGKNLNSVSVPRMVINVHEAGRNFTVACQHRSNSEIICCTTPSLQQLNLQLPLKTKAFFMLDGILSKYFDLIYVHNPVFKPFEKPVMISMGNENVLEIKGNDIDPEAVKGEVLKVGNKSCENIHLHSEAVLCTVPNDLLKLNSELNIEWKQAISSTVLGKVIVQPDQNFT

B1: 224G11 Fab: Fab fragment of mAb 224G11 generated by papain cleavage (antibody, V domains shown)
VH: EVQLQQSGPELVKPGASVKISCKTSGYIFTAYTMHWVRQSLGESLDWIGGIKPNNGLANYNQKFKGKATLTVDKSSSTAYMDLRSLTSEDSAVYYCARSEITTEFDYWGQGTALTVSS
VL: DIVLTQSPASLAVSLGQRATISCRASESVDSYANSFMHWYQQKPGQPPKLLIYRASNLESGIPARFSGSGSRTDFTLTINPVEADDVATYYCQQSKEDPLTFGSGTKLEMK
As to B1, the “Kon1 × 10^−6 [1/M · s]” value was 2.04 ± 0.01 × 10^−6 [1/M · s].

B2: 11E1 Fab: Fab fragment of mAb 11E1 generated by papain cleavage (antibody, V domains shown)
VH: QVQLQQSGAELAKPGASVKMSCKASGYTFTSYWMNWVKQRPGQGLEWIGYINPTTGSTDYNQKLKDKATLTADKSSNTAYMQLSSLTSEDSAVYYCAIGGYGSWFAYWGQGTLVTVSA
VL: QIVLTQSPAIMSASPGEKVTLTCSASSSVSSTYLYWYQQKPGSSPKLWIYTTSILASGVPARFSGSGSGTSYSLTISSMETEDAASYFCHQWSSYPFTFGSGTKLDIK
Turning to B2, the “Kon1 × 10^−6 [1/M · s]” value was 1.13 ± 0.01 × 10^−6 [1/M · s].
